# Experimental data as given in FireProtDB (doi:10.1021/bi00252a018).
# B1: Subtilisin inhibitor, P01006 (parent)
# chain: MRNTGAGPSPSVSRPPPSAAPLSGAALAAPGDAPSALYAPSALVLTVGKGVSATTAAPERAVTLTCAPGPSGTHPAAGSACADLAAVGGDLNALTRGEDVMCPMVYDPVLLTVDGVWQGKRVSYERVFSNECEMNAHGSSVFAF
# Variants of: B1
# Conditions: Streptomyces albogriseolus; pH 2.3; Thermal; DSC; glycine 25 mM; reversible: yes (70-85%); structure 3SSI; whole UniProt chain shown
row,Variant,Tm [°C]
1,MRNTGAGPSPSVSRPPPSAAPLSGAALAAPGDAPSALYAPSALVLTVGKGVSATTAAPERAVTLTCAPGPSGTHPAAGSACADLAAVGGDLNALTRGEDVMCPMVYDPVLLTVCGVWQGKRVSYERVFSNECEMNAHGSSVFAF,48

# Same assay, conditions: Streptomyces albogriseolus; pH 2.4; Thermal; DSC; glycine 25 mM; reversible: yes (70-85%); structure 3SSI; whole UniProt chain shown
row,Variant,Tm [°C]
1,MRNTGAGPSPSVSRPPPSAAPLSGAALAAPGDAPSALYAPSALVLTVGKGVSATTAAPERAVTLTCAPGPSGTHPAAGSACADLAAVGGDLNALTRGEDVMCPMVYDPVLLTVCGVWQGKRVSYERVFSNECEMNAHGSSVFAF,50

# Same assay, conditions: Streptomyces albogriseolus; pH 2.5; Thermal; DSC; glycine 25 mM; reversible: yes (70-85%); structure 3SSI; whole UniProt chain shown
row,Variant,Tm [°C]
1,MRNTGAGPSPSVSRPPPSAAPLSGAALAAPGDAPSALYAPSALVLTVGKGVSATTAAPERAVTLTCAPGPSGTHPAAGSACADLAAVGGDLNALTRGEDVMCPMVYDPVLLTVCGVWQGKRVSYERVFSNECEMNAHGSSVFAF,52.5

# Same assay, conditions: Streptomyces albogriseolus; pH 2.56; Thermal; DSC; glycine 25 mM; reversible: yes (70-85%); structure 3SSI; whole UniProt chain shown
row,Variant,Tm [°C]
1,MRNTGAGPSPSVSRPPPSAAPLSGAALAAPGDAPSALYAPSALVLTVGKGVSATTAAPERAVTLTCAPGPSGTHPAAGSACADLAAVGGDLNALTRGEDVMCPMVYDPVLLTVCGVWQGKRVSYERVFSNECEMNAHGSSVFAF,53.2

# Same assay, conditions: Streptomyces albogriseolus; pH 2.59; Thermal; DSC; glycine 25 mM; reversible: yes (70-85%); structure 3SSI; whole UniProt chain shown
row,Variant,Tm [°C]
1,MRNTGAGPSPSVSRPPPSAAPLSGAALAAPGDAPSALYAPSALVLTVGKGVSATTAAPERAVTLTCAPGPSGTHPAAGSACADLAAVGGDLNALTRGEDVMCPMVYDPVLLTVCGVWQGKRVSYERVFSNECEMNAHGSSVFAF,54.2

# Same assay, conditions: Streptomyces albogriseolus; pH 2.68; Thermal; DSC; glycine 25 mM; reversible: yes (70-85%); structure 3SSI; whole UniProt chain shown
row,Variant,Tm [°C]
1,MRNTGAGPSPSVSRPPPSAAPLSGAALAAPGDAPSALYAPSALVLTVGKGVSATTAAPERAVTLTCAPGPSGTHPAAGSACADLAAVGGDLNALTRGEDVMCPMVYDPVLLTVCGVWQGKRVSYERVFSNECEMNAHGSSVFAF,56.2

# Same assay, conditions: Streptomyces albogriseolus; pH 2.8; Thermal; DSC; glycine 25 mM; reversible: yes (70-85%); structure 3SSI; whole UniProt chain shown
row,Variant,Tm [°C]
1,MRNTGAGPSPSVSRPPPSAAPLSGAALAAPGDAPSALYAPSALVLTVGKGVSATTAAPERAVTLTCAPGPSGTHPAAGSACADLAAVGGDLNALTRGEDVMCPMVYDPVLLTVCGVWQGKRVSYERVFSNECEMNAHGSSVFAF,58.8

# Same assay, conditions: Streptomyces albogriseolus; pH 2.88; Thermal; DSC; glycine 25 mM; reversible: yes (70-85%); structure 3SSI; whole UniProt chain shown
row,Variant,Tm [°C]
1,MRNTGAGPSPSVSRPPPSAAPLSGAALAAPGDAPSALYAPSALVLTVGKGVSATTAAPERAVTLTCAPGPSGTHPAAGSACADLAAVGGDLNALTRGEDVMCPMVYDPVLLTVCGVWQGKRVSYERVFSNECEMNAHGSSVFAF,59.9

# Same assay, conditions: Streptomyces albogriseolus; pH 2.89; Thermal; DSC; glycine 25 mM; reversible: yes (70-85%); structure 3SSI; whole UniProt chain shown
row,Variant,Tm [°C]
1,MRNTGAGPSPSVSRPPPSAAPLSGAALAAPGDAPSALYAPSALVLTVGKGVSATTAAPERAVTLTCAPGPSGTHPAAGSACADLAAVGGDLNALTRGEDVMCPMVYDPVLLTVCGVWQGKRVSYERVFSNECEMNAHGSSVFAF,60.5

# Same assay, conditions: Streptomyces albogriseolus; pH 2.94; Thermal; DSC; glycine 25 mM; reversible: yes (70-85%); structure 3SSI; whole UniProt chain shown
Variant,Tm [°C],"change of melting temperature, mutant - wild type (higher = more stable) [°C]"
MRNTGAGPSPSVSRPPPSAAPLSGAALAAPGDAPSALYAPSALVLTVGKGVSATTAAPERAVTLTCAPGPSGTHPAAGSACADLAAVGGDLNALTRGEDVMCPMVYDPVLLTVCGVWQGKRVSYERVFSNECEMNAHGSSVFAF,61.2,17.2
MRNTGAGPSPSVSRPPPSAAPLSGAALAAPGDAPSALYAPSALVLTVGKGVSATTAAPERAVTLTCAPGPSGTHPAAGSACADLAAVGGDLNALTRGEDVMCPMVYDPVLLTVNGVWQGKRVSYERVFSNECEMNAHGSSVFAF,44.8,0.88

# Same assay, conditions: Streptomyces albogriseolus; pH 3.04; Thermal; DSC; glycine 25 mM; reversible: yes (70-85%); structure 3SSI; whole UniProt chain shown
Variant,Tm [°C],"change of melting temperature, mutant - wild type (higher = more stable) [°C]"
MRNTGAGPSPSVSRPPPSAAPLSGAALAAPGDAPSALYAPSALVLTVGKGVSATTAAPERAVTLTCAPGPSGTHPAAGSACADLAAVGGDLNALTRGEDVMCPMVYDPVLLTVCGVWQGKRVSYERVFSNECEMNAHGSSVFAF,63.2,15.6
MRNTGAGPSPSVSRPPPSAAPLSGAALAAPGDAPSALYAPSALVLTVGKGVSATTAAPERAVTLTCAPGPSGTHPAAGSACADLAAVGGDLNALTRGEDVMCPMVYDPVLLTVNGVWQGKRVSYERVFSNECEMNAHGSSVFAF,46.3,-1.29

# Same assay, conditions: Streptomyces albogriseolus; pH 3.07; Thermal; DSC; glycine 25 mM; reversible: yes (70-85%); structure 3SSI; whole UniProt chain shown
Variant,Tm [°C],"change of melting temperature, mutant - wild type (higher = more stable) [°C]"
MRNTGAGPSPSVSRPPPSAAPLSGAALAAPGDAPSALYAPSALVLTVGKGVSATTAAPERAVTLTCAPGPSGTHPAAGSACADLAAVGGDLNALTRGEDVMCPMVYDPVLLTVCGVWQGKRVSYERVFSNECEMNAHGSSVFAF,64.5,15.7
MRNTGAGPSPSVSRPPPSAAPLSGAALAAPGDAPSALYAPSALVLTVGKGVSATTAAPERAVTLTCAPGPSGTHPAAGSACADLAAVGGDLNALTRGEDVMCPMVYDPVLLTVNGVWQGKRVSYERVFSNECEMNAHGSSVFAF,47.3,-1.43

# Same assay, conditions: Streptomyces albogriseolus; pH 3.16; Thermal; DSC; glycine 25 mM; reversible: yes (70-85%); structure 3SSI; whole UniProt chain shown
Variant,Tm [°C],"change of melting temperature, mutant - wild type (higher = more stable) [°C]"
MRNTGAGPSPSVSRPPPSAAPLSGAALAAPGDAPSALYAPSALVLTVGKGVSATTAAPERAVTLTCAPGPSGTHPAAGSACADLAAVGGDLNALTRGEDVMCPMVYDPVLLTVCGVWQGKRVSYERVFSNECEMNAHGSSVFAF,66.5,14.3
MRNTGAGPSPSVSRPPPSAAPLSGAALAAPGDAPSALYAPSALVLTVGKGVSATTAAPERAVTLTCAPGPSGTHPAAGSACADLAAVGGDLNALTRGEDVMCPMVYDPVLLTVNGVWQGKRVSYERVFSNECEMNAHGSSVFAF,49.9,-2.28

# Same assay, conditions: Streptomyces albogriseolus; pH 3.25; Thermal; DSC; glycine 25 mM; reversible: yes (70-85%); structure 3SSI; whole UniProt chain shown
Variant,Tm [°C],"change of melting temperature, mutant - wild type (higher = more stable) [°C]"
MRNTGAGPSPSVSRPPPSAAPLSGAALAAPGDAPSALYAPSALVLTVGKGVSATTAAPERAVTLTCAPGPSGTHPAAGSACADLAAVGGDLNALTRGEDVMCPMVYDPVLLTVCGVWQGKRVSYERVFSNECEMNAHGSSVFAF,68.8,13.1

# Same assay, conditions: Streptomyces albogriseolus; pH 7; Thermal; DSC; phosphate 25 mM; reversible: yes (70-85%); structure 3SSI; whole UniProt chain shown
Variant,Tm [°C],"change of melting temperature, mutant - wild type (higher = more stable) [°C]"
MRNTGAGPSPSVSRPPPSAAPLSGAALAAPGDAPSALYAPSALVLTVGKGVSATTAAPERAVTLTCAPGPSGTHPAAGSACADLAAVGGDLNALTRGEDVMCPMVYDPVLLTVCGVWQGKRVSYERVFSNECEMNAHGSSVFAF,95.3,13.3
MRNTGAGPSPSVSRPPPSAAPLSGAALAAPGDAPSALYAPSALVLTVGKGVSATTAAPERAVTLTCAPGPSGTHPAAGSACADLAAVGGDLNALTRGEDVMCPMVYDPVLLTVNGVWQGKRVSYERVFSNECEMNAHGSSVFAF,83.1,1.07

# Same assay, conditions: Streptomyces albogriseolus; pH 9.5; Thermal; DSC; glycine 25 mM; reversible: yes (70-85%); structure 3SSI; whole UniProt chain shown
Variant,Tm [°C],"change of melting temperature, mutant - wild type (higher = more stable) [°C]"
MRNTGAGPSPSVSRPPPSAAPLSGAALAAPGDAPSALYAPSALVLTVGKGVSATTAAPERAVTLTCAPGPSGTHPAAGSACADLAAVGGDLNALTRGEDVMCPMVYDPVLLTVCGVWQGKRVSYERVFSNECEMNAHGSSVFAF,95,14.3
MRNTGAGPSPSVSRPPPSAAPLSGAALAAPGDAPSALYAPSALVLTVGKGVSATTAAPERAVTLTCAPGPSGTHPAAGSACADLAAVGGDLNALTRGEDVMCPMVYDPVLLTVNGVWQGKRVSYERVFSNECEMNAHGSSVFAF,82.6,1.88

# Same assay, conditions: Streptomyces albogriseolus; pH 9.75; Thermal; DSC; glycine 25 mM; reversible: yes (70-85%); structure 3SSI; whole UniProt chain shown
Variant,Tm [°C],"change of melting temperature, mutant - wild type (higher = more stable) [°C]"
MRNTGAGPSPSVSRPPPSAAPLSGAALAAPGDAPSALYAPSALVLTVGKGVSATTAAPERAVTLTCAPGPSGTHPAAGSACADLAAVGGDLNALTRGEDVMCPMVYDPVLLTVCGVWQGKRVSYERVFSNECEMNAHGSSVFAF,94.8,14.6
MRNTGAGPSPSVSRPPPSAAPLSGAALAAPGDAPSALYAPSALVLTVGKGVSATTAAPERAVTLTCAPGPSGTHPAAGSACADLAAVGGDLNALTRGEDVMCPMVYDPVLLTVNGVWQGKRVSYERVFSNECEMNAHGSSVFAF,82.3,2.06

# Same assay, conditions: Streptomyces albogriseolus; pH 2.9; Thermal; DSC; glycine 25 mM; reversible: yes (70-85%); structure 3SSI; whole UniProt chain shown
Variant,Tm [°C],"change of melting temperature, mutant - wild type (higher = more stable) [°C]"
MRNTGAGPSPSVSRPPPSAAPLSGAALAAPGDAPSALYAPSALVLTVGKGVSATTAAPERAVTLTCAPGPSGTHPAAGSACADLAAVGGDLNALTRGEDVMCPMVYDPVLLTVNGVWQGKRVSYERVFSNECEMNAHGSSVFAF,42.3,-2.17

# Same assay, conditions: Streptomyces albogriseolus; pH 2.98; Thermal; DSC; glycine 25 mM; reversible: yes (70-85%); structure 3SSI; whole UniProt chain shown
Variant,Tm [°C],"change of melting temperature, mutant - wild type (higher = more stable) [°C]"
MRNTGAGPSPSVSRPPPSAAPLSGAALAAPGDAPSALYAPSALVLTVGKGVSATTAAPERAVTLTCAPGPSGTHPAAGSACADLAAVGGDLNALTRGEDVMCPMVYDPVLLTVNGVWQGKRVSYERVFSNECEMNAHGSSVFAF,45.1,-0.2

# Same assay, conditions: Streptomyces albogriseolus; pH 3.15; Thermal; DSC; glycine 25 mM; reversible: yes (70-85%); structure 3SSI; whole UniProt chain shown
Variant,Tm [°C],"change of melting temperature, mutant - wild type (higher = more stable) [°C]"
MRNTGAGPSPSVSRPPPSAAPLSGAALAAPGDAPSALYAPSALVLTVGKGVSATTAAPERAVTLTCAPGPSGTHPAAGSACADLAAVGGDLNALTRGEDVMCPMVYDPVLLTVNGVWQGKRVSYERVFSNECEMNAHGSSVFAF,50.2,-1.03

# Same assay, conditions: Streptomyces albogriseolus; pH 3.19; Thermal; DSC; glycine 25 mM; reversible: yes (70-85%); structure 3SSI; whole UniProt chain shown
Variant,Tm [°C],"change of melting temperature, mutant - wild type (higher = more stable) [°C]"
MRNTGAGPSPSVSRPPPSAAPLSGAALAAPGDAPSALYAPSALVLTVGKGVSATTAAPERAVTLTCAPGPSGTHPAAGSACADLAAVGGDLNALTRGEDVMCPMVYDPVLLTVNGVWQGKRVSYERVFSNECEMNAHGSSVFAF,51.4,-1.95

# Same assay, conditions: Streptomyces albogriseolus; pH 3.2; Thermal; DSC; glycine 25 mM; reversible: yes (70-85%); structure 3SSI; whole UniProt chain shown
Variant,Tm [°C],"change of melting temperature, mutant - wild type (higher = more stable) [°C]"
MRNTGAGPSPSVSRPPPSAAPLSGAALAAPGDAPSALYAPSALVLTVGKGVSATTAAPERAVTLTCAPGPSGTHPAAGSACADLAAVGGDLNALTRGEDVMCPMVYDPVLLTVNGVWQGKRVSYERVFSNECEMNAHGSSVFAF,51.3,-2.3

# Same assay, conditions: Streptomyces albogriseolus; pH 3.21; Thermal; DSC; glycine 25 mM; reversible: yes (70-85%); structure 3SSI; whole UniProt chain shown
Variant,Tm [°C],"change of melting temperature, mutant - wild type (higher = more stable) [°C]"
MRNTGAGPSPSVSRPPPSAAPLSGAALAAPGDAPSALYAPSALVLTVGKGVSATTAAPERAVTLTCAPGPSGTHPAAGSACADLAAVGGDLNALTRGEDVMCPMVYDPVLLTVNGVWQGKRVSYERVFSNECEMNAHGSSVFAF,51.3,-2.07
